We go through 2 substances from US20240261333A1, “NOVEL TARGETS FOR ENHANCING ANTI-TUMOR IMMUNITY” (THE BROAD INSTITUTE, INC., priority 2021, published 2024).

In test [1] the target is CCT2 (human) (UniProt P78371). The experiment in a line: co-IP with anti-FLAG, mass spectrometry; lysate of cells with C-FLAG B3GNT2.
Test [2] deals with DNAJB11 (human) (UniProt Q9UBS4). The description is as above.
Another test concerns the target ILF3 (human) (UniProt Q12906). The test is described as above.
In test [3] the target is MAGT1 (human) (UniProt Q9H0U3). Described as above.
Test [4] deals with PIGR (human) (UniProt P01833). Described as above.
In the next test the target is RPS4X (human) (UniProt P62701). The description is as above.
The target of test [5] is SDF4 (human) (UniProt Q9BRK5). The test is described as above.
For test [6], the target named is SLC25A5 (human) (UniProt P05141). The test is described as above.
The target in test [7] is TOR1AIP2 (human) (UniProt Q8NFQ8). The test is described as above.
The target of another test is ARHGEF2 (human) (UniProt Q92974). The experiment in a line: co-IP with control IgG, mass spectrometry; lysate of cells with N-FLAG B3GNT2.
Test [8] concerns the target CCT2 (human) (UniProt P78371). The test is described as above.
The target of the next test is CCT7 (human) (UniProt Q99832). Described as above.
The target in a further test is CD70 (human) (UniProt P32970). Described as above.
A further test addresses CTHRC1 (human) (UniProt Q96CG8). The test is described as above.
Test [9] deals with DNAJB11 (human) (UniProt Q9UBS4). Described as above.
A further test has as its target EIF4A1 (human) (UniProt P60842). The description is as above.
In the next test the target is EPRS (human) (UniProt P07814). The description is as above.
The target of a further test is GALNT2 (human) (UniProt Q10471). Described as above.
Another test deals with HSPD1 (human) (UniProt P10809). The test is described as above.
Test [10] deals with MAGT1 (human) (UniProt Q9H0U3). The test is described as above.
The next test deals with MSN (human) (UniProt P26038). The test is described as above.
The next test addresses MYO1C (human) (UniProt O00159). The test is described as above.
For test [11], the target named is PIGR (human) (UniProt P01833). The description is as above.
The target of another test is PJA2 (human) (UniProt O43164). The description is as above.
The target of another test is PSMD4 (human) (UniProt P55036). Described as above.
The target in another test is RARS (human) (UniProt P54136). The description is as above.
The next test concerns the target RPL9 (human) (UniProt P32969). The test is described as above.
For the next test, the target named is RPS27 (human) (UniProt P42677). The description is as above.
For the next test, the target named is RRP12 (human) (UniProt Q5JTH9). Described as above.
Test [12] deals with SDF4 (human) (UniProt Q9BRK5). The test is described as above.
Test [13] has as its target SLC25A5 (human) (UniProt P05141). Described as above.
For a further test, the target named is SLC27A4 (human) (UniProt Q6P1M0). The description is as above.
The next test concerns the target SPRR1A (human) (UniProt P35321). Described as above.
A further test has as its target STAU2 (human) (UniProt Q9NUL3). The test is described as above.
Test [14] deals with TOR1AIP2 (human) (UniProt Q8NFQ8). The description is as above.
Another test concerns the target UGGT1 (human) (UniProt Q9NYU2). The test is described as above.
The next test concerns the target ZC3HAV1 (human) (UniProt Q7Z2W4). The test is described as above.

Chain of MAGT1 (human) (Q9H0U3 30-335 limits assumed): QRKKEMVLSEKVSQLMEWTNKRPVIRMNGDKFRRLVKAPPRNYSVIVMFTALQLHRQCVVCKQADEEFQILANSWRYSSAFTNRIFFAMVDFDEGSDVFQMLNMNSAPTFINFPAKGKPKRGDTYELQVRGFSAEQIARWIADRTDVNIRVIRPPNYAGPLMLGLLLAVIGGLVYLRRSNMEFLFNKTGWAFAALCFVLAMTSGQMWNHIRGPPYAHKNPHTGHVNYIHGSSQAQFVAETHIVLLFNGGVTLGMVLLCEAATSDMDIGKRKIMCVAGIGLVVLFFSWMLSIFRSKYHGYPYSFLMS
Chain of PIGR (human) (P01833 19-764 limits assumed): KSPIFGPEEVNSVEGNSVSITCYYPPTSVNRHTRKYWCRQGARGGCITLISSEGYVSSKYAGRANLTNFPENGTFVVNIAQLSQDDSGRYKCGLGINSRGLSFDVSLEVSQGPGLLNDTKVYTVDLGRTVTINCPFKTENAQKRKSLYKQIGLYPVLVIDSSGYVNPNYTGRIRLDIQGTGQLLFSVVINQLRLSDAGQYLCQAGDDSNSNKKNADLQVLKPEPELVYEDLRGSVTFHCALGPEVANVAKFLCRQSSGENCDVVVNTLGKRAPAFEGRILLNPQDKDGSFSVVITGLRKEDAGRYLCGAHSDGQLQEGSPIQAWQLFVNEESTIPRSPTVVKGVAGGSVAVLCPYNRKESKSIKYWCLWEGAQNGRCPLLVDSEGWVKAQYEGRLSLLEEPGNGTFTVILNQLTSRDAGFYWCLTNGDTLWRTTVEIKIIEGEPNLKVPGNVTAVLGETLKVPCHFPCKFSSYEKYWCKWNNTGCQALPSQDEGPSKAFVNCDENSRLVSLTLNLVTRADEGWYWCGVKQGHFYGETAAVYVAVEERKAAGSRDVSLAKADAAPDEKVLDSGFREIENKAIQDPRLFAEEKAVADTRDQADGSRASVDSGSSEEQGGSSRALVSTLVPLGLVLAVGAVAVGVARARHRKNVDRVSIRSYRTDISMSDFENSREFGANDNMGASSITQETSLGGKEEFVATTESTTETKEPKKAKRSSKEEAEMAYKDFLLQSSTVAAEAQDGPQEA
Chain of SDF4 (human) (Q9BRK5 37-362 limits assumed): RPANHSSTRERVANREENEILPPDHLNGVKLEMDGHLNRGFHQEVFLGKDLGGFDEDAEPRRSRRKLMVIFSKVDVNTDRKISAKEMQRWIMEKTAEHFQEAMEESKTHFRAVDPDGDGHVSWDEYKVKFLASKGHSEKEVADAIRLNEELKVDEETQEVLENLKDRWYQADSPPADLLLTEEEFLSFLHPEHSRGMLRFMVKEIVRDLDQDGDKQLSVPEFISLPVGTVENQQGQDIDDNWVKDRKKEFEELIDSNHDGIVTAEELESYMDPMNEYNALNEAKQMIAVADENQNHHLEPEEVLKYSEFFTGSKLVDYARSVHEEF
Chain of TOR1AIP2 (human) (Q8NFQ8 2-470 limits assumed): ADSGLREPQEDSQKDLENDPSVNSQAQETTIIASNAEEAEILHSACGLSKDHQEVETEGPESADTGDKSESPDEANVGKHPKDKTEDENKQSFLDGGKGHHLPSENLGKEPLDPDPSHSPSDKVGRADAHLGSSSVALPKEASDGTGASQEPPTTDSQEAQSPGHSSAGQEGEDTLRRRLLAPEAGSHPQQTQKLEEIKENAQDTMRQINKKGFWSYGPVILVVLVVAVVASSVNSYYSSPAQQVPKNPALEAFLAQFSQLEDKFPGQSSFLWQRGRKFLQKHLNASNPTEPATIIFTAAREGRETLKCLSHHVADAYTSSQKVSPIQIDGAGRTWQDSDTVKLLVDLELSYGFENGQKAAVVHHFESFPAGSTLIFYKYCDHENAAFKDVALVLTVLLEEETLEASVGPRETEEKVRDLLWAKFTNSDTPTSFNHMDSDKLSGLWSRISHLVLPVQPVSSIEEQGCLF
Chain of DNAJB11 (human) (Q9UBS4 23-358 limits assumed): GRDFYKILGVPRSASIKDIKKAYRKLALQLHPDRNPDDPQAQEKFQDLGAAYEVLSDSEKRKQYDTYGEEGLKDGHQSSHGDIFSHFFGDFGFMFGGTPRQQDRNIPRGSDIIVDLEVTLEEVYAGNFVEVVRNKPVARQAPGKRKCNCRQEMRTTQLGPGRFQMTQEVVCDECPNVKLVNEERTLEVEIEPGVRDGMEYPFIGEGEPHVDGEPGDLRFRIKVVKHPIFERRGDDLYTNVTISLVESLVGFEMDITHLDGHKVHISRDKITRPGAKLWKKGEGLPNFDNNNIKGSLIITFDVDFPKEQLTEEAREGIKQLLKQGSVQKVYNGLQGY
Chain of CCT2 (human) (P78371 48-535 limits assumed): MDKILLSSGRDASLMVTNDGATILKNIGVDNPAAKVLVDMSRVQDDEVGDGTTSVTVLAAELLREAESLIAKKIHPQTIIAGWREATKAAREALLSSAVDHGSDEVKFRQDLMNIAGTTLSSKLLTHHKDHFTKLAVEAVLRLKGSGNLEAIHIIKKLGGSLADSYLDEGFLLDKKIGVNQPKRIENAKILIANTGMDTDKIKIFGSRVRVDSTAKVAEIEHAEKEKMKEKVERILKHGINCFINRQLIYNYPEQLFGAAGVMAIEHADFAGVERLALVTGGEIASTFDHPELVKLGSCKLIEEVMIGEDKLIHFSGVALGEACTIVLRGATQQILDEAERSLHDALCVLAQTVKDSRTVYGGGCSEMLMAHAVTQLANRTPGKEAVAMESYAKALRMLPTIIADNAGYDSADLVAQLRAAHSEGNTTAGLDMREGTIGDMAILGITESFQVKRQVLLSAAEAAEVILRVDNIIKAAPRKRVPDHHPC
Chain of SLC25A5 (human) (P05141 2-298 limits assumed): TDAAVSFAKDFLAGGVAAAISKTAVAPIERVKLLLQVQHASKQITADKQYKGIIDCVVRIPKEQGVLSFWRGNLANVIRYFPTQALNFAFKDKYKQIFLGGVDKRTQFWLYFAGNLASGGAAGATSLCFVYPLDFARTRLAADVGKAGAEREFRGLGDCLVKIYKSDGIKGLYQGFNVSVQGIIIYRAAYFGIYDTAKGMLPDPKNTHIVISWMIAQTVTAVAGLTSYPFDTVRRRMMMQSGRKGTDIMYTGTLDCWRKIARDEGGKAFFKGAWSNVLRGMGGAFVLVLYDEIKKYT
Chain of MSN (human) (P26038 2-577 limits assumed): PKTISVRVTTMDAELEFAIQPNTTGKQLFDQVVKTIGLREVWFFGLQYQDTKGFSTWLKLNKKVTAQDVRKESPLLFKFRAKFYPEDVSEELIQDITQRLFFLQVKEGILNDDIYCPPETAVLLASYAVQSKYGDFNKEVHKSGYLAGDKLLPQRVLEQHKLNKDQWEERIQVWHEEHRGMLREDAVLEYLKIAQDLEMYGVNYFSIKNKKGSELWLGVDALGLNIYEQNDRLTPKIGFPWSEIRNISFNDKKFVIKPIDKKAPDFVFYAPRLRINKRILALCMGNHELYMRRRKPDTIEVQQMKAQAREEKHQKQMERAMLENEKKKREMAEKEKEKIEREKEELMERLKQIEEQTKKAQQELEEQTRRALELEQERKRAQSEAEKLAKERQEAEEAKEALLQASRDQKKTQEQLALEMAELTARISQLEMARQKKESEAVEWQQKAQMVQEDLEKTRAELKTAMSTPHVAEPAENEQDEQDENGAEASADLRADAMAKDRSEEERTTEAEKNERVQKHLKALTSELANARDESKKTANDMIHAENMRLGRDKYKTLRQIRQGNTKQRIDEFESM
Chain of SLC27A4 (human) (Q6P1M0 whole entry): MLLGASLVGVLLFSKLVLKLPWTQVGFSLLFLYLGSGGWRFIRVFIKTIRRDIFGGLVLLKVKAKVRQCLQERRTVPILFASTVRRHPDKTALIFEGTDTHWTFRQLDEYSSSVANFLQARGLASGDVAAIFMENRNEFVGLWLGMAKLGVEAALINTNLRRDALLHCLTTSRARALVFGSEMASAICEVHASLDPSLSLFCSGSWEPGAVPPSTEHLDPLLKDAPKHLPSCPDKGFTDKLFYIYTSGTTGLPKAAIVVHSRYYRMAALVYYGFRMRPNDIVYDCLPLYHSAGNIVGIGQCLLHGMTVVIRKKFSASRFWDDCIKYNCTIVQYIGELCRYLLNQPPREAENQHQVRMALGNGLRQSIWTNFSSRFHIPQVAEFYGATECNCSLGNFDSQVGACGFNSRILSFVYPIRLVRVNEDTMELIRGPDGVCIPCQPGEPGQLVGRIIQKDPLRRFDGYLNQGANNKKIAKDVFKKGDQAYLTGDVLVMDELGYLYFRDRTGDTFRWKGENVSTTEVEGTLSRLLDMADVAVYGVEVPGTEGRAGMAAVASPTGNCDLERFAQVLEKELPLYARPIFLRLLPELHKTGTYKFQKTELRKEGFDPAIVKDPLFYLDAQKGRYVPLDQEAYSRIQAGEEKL
Chain of CD70 (human) (P32970 whole entry): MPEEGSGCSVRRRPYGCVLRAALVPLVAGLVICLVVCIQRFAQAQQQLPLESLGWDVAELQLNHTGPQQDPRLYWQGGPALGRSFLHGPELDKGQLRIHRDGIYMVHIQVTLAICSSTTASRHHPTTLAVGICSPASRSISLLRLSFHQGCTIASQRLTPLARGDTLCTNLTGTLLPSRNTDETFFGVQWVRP
Chain of CTHRC1 (human) (Q96CG8 other isoform, or with tags, fused parts or gaps limits assumed): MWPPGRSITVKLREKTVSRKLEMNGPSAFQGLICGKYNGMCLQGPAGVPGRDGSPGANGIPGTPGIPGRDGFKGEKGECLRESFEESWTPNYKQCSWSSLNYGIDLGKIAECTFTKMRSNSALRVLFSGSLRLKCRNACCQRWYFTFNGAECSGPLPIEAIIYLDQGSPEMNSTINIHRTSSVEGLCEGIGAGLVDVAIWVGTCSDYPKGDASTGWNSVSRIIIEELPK
Chain of SPRR1A (human) (P35321 whole entry): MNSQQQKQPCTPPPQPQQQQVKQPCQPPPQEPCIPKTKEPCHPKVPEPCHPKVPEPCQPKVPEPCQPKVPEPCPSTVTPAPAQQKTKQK

“C-terminal FLAG tagged B3GNT2 (from UniProt Q9NY97 1-397) (enzyme)”: the co-IP mass spectrometry count with CCT2 (human) [1] worked out at 2; with DNAJB11 (human) [2], 4; with ILF3 (human) it was 5; in the test with MAGT1 (human) [3] it was 2; with PIGR (human) [4] it was 5; with RPS4X (human), 23. The co-IP mass spectrometry count in the test with SDF4 (human) [5] amounted to 7; with SLC25A5 (human) [6], 30; with TOR1AIP2 (human) [7], 2.
In the case of “IgG control (Millipore Sigma 12-371) (antibody)”, the co-IP mass spectrometry count in the test with ARHGEF2 (human), with CCT2 (human) [8], with CCT7 (human), with CD70 (human), with CTHRC1 (human) and in the test with DNAJB11 (human) [9] was 0 each time. Further, the co-IP mass spectrometry count with EIF4A1 (human), in the test with EPRS (human), with GALNT2 (human), with HSPD1 (human), in the test with MAGT1 (human) [10] and with MSN (human) was 0 each time. The co-IP mass spectrometry count with MYO1C (human), with PIGR (human) [11], in the test with PJA2 (human), with PSMD4 (human), with RARS (human) and with RPL9 (human) was 0 throughout. Further, the co-IP mass spectrometry count with RPS27 (human) worked out at 0; with RRP12 (human) it was 0; with SDF4 (human) [12], 0; in the test with SLC25A5 (human) [13], 6; with SLC27A4 (human), 0; with SPRR1A (human), 0. Moreover, the co-IP mass spectrometry count with STAU2 (human), with TOR1AIP2 (human) [14], with UGGT1 (human) and in the test with ZC3HAV1 (human) was 0 each time.
